Measurements from the supplement of paper PMC9170038.

Test system: MS2 coat protein
Assay: apparent KD of MS2 coat protein; designed switch direction (-1 OFF switch, 1 ON switch): 1; higher = weaker reporter binding
How it was run: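 The buffer was Tris-HCl pH 7.5 with KCl, MgCl2, BSA, DTT, tRNA and Tween-20. In it, SNAP-549-labelled MS2 coat protein was titrated in doubling steps from 0.7 or 1.5 nM to 3 µM over chip-bound RNA switches transcribed by stalled E. coli RNA polymerase on Illumina chips. Apparent KD is the per-design median over clusters of curve fits to normalised fluorescence.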

[1] = input ligand: microRNA oligo, concentration not stated
[2] = Eterna round: R95, input ligand: FMN 200 uM
[3] = Eterna round: R95, input ligand: microRNA oligo, concentration not stated
[4] = Eterna round: R95, input ligand: none

| Sequence | apparent KD of MS2 coat protein (input ligand: FMN 200 uM) [µM] | apparent KD of MS2 coat protein [1] [µM] | apparent KD of MS2 coat protein (input ligand: none) [µM] | apparent KD of MS2 coat protein [2] [µM] | apparent KD of MS2 coat protein [3] [µM] | apparent KD of MS2 coat protein [4] [µM] |
| --- | --- | --- | --- | --- | --- | --- |
| GUUACAUGAGGAUCACCCAUGUAUGUGUGGGAGUAAGUGUCUUAGGAUAUCUGUUAUUUAAUCUAAGAGAAGGAAGAUUGUUGU [JMF's solution 45] (Eterna round: R96, puzzle: Same State NG 3) | 0.113 | 0.0667 | 0.0941 | – | – | – |
| GCGAAGAGGUAAGGAUAUUCAUGGCGUAGACAUGAGGAUCACCCAUGUAGGAGACGAAUUAGAAGGGAGAAGGUACCAGGACGC [AK SSNG2-V2-17] (Eterna round: R96, puzzle: Same State NG 2) | 0.0609 | 0.101 | 0.187 | – | – | – |
| AUUAUAUAUGCAGGAUAUGAUUAACAUGAGGAUCACCCAUGUGGUGUUGUGAGUAAGGAGAGUGAUCAGAAGGGCAUUUUUUUU [JMF's solution 63] (Eterna round: R96, puzzle: Same State NG 2) | 0.852 | 0.163 | 0.353 | – | – | – |
| AUAAAACAUGAGGAUCACCCAUGUCAACAAAGUCGAGGAUAUGGGUAAAUAAAAUAAGAACCAGAAGGCGAAUAAU [salish99_ss1_r3_028] (puzzle: Same State 1) | – | – | – | 0.0835 | 0.283 | 0.163 |
| GCCGGCUGGUGAGGAUAUGGCACCUUAUUGGUGCCAGAAGGCAUGUCAAUUGACAUGAGGAUCACCCAUGUAUUAUCGUUGGCG [salish99_SSNG1_r04_607] (Eterna round: R96, puzzle: Same State NG 1) | 0.725 | 0.325 | 0.37 | – | – | – |
| GGUGUACAUGAGGAUCACCCAUGUCGUACGACAUGAGGAUAUGUACAGACUUCGGUCUGUACAGAAGGCAUGUGUC [SS1 - 1011 Omei Mod 5] (puzzle: Same State 1) | – | – | – | – | 0.21 | – |
| UGUCCAGCCUGAGCUGGACAAAAGCAUGUACAUGAGGAUCACCCAUGUUCAUGUACAAGCUUUUUGCUCGUCUUACG [salish99_208a_r3_082] (puzzle: Sensor for hsa-mir-208a) | – | – | – | 0.763 | 0.015 | 0.69 |
| AGCUAGUACCGAGGAUAUACGUACAUGAGGAUCACCCAUGUAUACAUGAAUUAAUGAGACUACAUGUAGAAGGCGGUACUAGCA [Mat - Same State NG 2 - JL mod - D49] (Eterna round: R96, puzzle: Same State NG 2) | – | 0.0343 | – | – | – | – |
| GCGAUAUGAUGUUACAUGAGGAUCACCCAUGUAGCGACAGCUAAGGAUAUUGGAAAGGGAGGAGACGAGAAGGUAGGGUCACGC [AK SSNG3-V2-24] (Eterna round: R96, puzzle: Same State NG 3) | 0.0229 | 0.0158 | 0.0197 | – | – | – |
| UUUAGUUGCGGGCAGGAUAUGUAUUAAAAUACAUGAGGAUCACCCAUGUGAGGCCGAAAAGGCCUACAGAAGGGCCAAACGCGAC [Laonerce - 23] (puzzle: Same State 2) | – | – | – | 0.0144 | 0.0845 | 0.117 |
| AGUAGUUUAACAUGAGGAUCACCCAUGUAUCUAUCUGUAACCUAGGAUAUGGGCGUUGUAUUUAACCAGAAGGAGGAUCGUUUA [JR_SSNG3_Sub047] (Eterna round: R96, puzzle: Same State NG 3) | 0.0178 | 0.0225 | 0.029 | – | – | – |
| GACAAUCUAUCUGAGGAUAUCAUGAAAAAAACAUGAGGAUCACCCAUGUGCAGGAAAACUGCAUAUGAGAAGGCAGAUAGAUUGG [salish99_SS2_r3_011] (puzzle: Same State 2) | – | – | – | 0.0312 | 0.485 | 0.613 |
| AGCGAGAUAGGCGAGGAUAUGCUUUUUUGCACAUGAGGAUCACCCAUGUCUUUGUUUUUUGUUUUGCAGAAGGCGCAUUCUCUUU [ak unbound state multiloop] (puzzle: Same State 2) | – | – | – | 0.0327 | 0.0143 | 0.0127 |
| UCUUGGUUUUUGCUCGUUUUUUGUGUUGAACAUGAGGAUCACCCAUGUAUUGUACGGUCCAGUUUAGUGGUAGUCCG [JMF 70] (puzzle: Sensor for hsa-mir-208a) | – | – | – | 0.0346 | 0.0215 | 0.0364 |
| AUUAUUAAUGCAGGAUAUGAUUAACAUGAGGAUCACCCAUGUGGUGUUGUGAGUAAGGAGAGUGAUCAGAAGGGCAAUUUUUUU [JMF's solution 7] (Eterna round: R96, puzzle: Same State NG 2) | 0.382 | 0.633 | 0.34 | – | – | – |
| GCGCACGAUCACAGUAACAUGAGGAUCACCCAUGUGUUACCGGAGGAUAUGCAAGCCCAUGCAGCGCAGAAGGCCGGGAACGUA [Eternabot solution 24] (Eterna round: R96, puzzle: Same State NG 3) | 0.151 | 0.131 | 0.147 | – | – | – |
